From patent US7759464 come the findings set out here.

In assay [1] the target is monoclonal anti-idiotypic antibody MMA383. Kind of assay: sandwich ELISA on wells coated with anti-idiotypic antibody MMA383, detected with anti-human IgG+A+M peroxidase.
Assay [2] shares this target. The assay is described as follows: sandwich ELISA on wells coated with anti-idiotypic antibody MMA383; evaluated at EC50, normalized on IGN311 wt.

B1: IGN311 wt. (antibody, V domains shown)
VH: EVQLLESGGGLVQPGGSLRLSCAASGFTFSDYYMYWVRQAPEKRLEWVAYISNGGGSSHYVDSVKGRFTISRDNSKNTLYLQMNSLRAEDTALYHCARGMDYGAWFAYWGQGTLVTVSS
VL: DIVMTQSPLSLPVTPGEPASISCRSSQSIVHSNGNTYLEWYLQKPGQSPQLLISKVSNRFSGVPDRFSGSGSGTDFTLKISRVEAEDVGVYYCFQGSHVPFTFGQGTKLEIK
B1: in assay [1], the Bottom (four parameter sigmoid fit) worked out at 96.1, the EC50 is 0.0638 µg/mL, the Log EC50 was 1.8 log(ng/ml) and the Top (four parameter sigmoid fit) turned out to be 2060. Further, in assay [2], the % (binding activity normalized on IGN311 wt.) came to 100%.

B2: IGN312 Glyco I (antibody, V domains shown)
VH: EVQLLESGGGLVQPGGSLRLSCAASGFTFSDYYMYWVRQAPEKRLEWVAYISNGGGSSHYVDSVKGRFTISRDNSKNTLYLQMNSLRAEDTALYHCARGMDYGAWFAYWGQGTLVTVSS
VL: DIVMTQSPLSLPVTPGEPASISCRSSQSIVHSNGNTYLEWYLQKPGQSPQLLISKVSNRFSGVPDRFSGSGSGTDFTLKISRVEAEDVGVYYCFQGSHVPFTFGQGTKLEIK
modifications: bi-sected hybrid type N-glycosylation pattern in the Fc region (constant part of the heavy chain, not in this VH piece)
In the case of B2, in assay [1], the Bottom (four parameter sigmoid fit) was found to be 77, the 50% effective concentration (EC50) worked out at 0.0688 µg/mL, the Log EC50 is 1.84 log(ng/ml) and the Top (four parameter sigmoid fit) was determined as 2100. For the same molecule, in assay [2], the % (binding activity normalized on IGN311 wt.) came out at 108%.

A word on the EC50: it is the concentration at which the effect is half-maximal.
